The record followed here is patent US6297356, “Telomere repeat binding factors and diagnostic and therapeutic use thereof” (The Rockfeller University).

The data set has as its target T1, TRF1 (MTRF12) (Mus musculus, UniProt P70371 SEQ:1-421).
T1 sequence: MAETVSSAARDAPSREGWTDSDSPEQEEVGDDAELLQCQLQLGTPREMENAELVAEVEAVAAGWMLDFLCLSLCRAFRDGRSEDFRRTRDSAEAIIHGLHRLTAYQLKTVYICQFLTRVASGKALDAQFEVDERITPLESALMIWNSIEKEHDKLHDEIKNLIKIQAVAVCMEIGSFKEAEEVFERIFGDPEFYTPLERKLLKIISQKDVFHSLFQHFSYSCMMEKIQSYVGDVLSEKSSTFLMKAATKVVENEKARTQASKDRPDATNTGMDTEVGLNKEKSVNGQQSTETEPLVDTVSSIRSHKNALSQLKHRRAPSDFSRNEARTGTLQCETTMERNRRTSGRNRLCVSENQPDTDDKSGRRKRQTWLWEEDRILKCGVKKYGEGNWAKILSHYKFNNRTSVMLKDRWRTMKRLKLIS
In words: EMSA; reticulocyte lysate. Particulars: chain copies: 2; label: labelled. The source says: Figure 6: FIG. 6 depicts a gel-shift experiment showing telomeric repeat binding activity of protein encoded by the mouse MTRF12 cDNA. The cDNA was transcribed using T3 RNA polymerase and translated in a rabbit reticulocyte lysate. The probe is a $(TTAGGG)12$-containing restriction fragment. Competitions were done with plasmids containing long arrays of telomeric DNAs with the indicated sequence. Gel-shift methods are as described by (Zhong et al, 1992). […] Shown is two interphase nuclei in which the anti-FLAG antibodies detect a speckled TRF pattern (green) against the background of DAPI stained DNA (blue). […] Shown is a metaphase spread in which the anti-HA antibody detects TRF at each chromosome end (green). The DNA is stained with DAPI (blue).
The mouse cDNA (MTRF12) contained its own initiator codon and was transcribed and translated without further modification using the T3 promoter in its pBluescript vector. Similar to the human cDNA, a ~60 kD protein was synthesized that bound TTAGGG repeats but not TTGGGG or TTAGGC repeats (FIG. 6).
Background: In EMSA bound probe runs differently from free probe, usually more slowly.

B1: (TTAGGG)12 restriction fragment (dsDNA)
DNA 1: GTACCCGGGGATCGTGACTCTAGAGGGGCCCTAACCCTAACCCTAACCCTAACCCTAACCCTAACCCTAACCCTAACCCTAACCCTAACCCTAACCCTAACCCTAACCCGGGTCGAATTCGATCTCTAGAGTCGACCTGCAGGCATGC
DNA 2: GCATGCCTGCAGGTCGACTCTAGAGATCGAATTCGACCCGGGTTAGGGTTAGGGTTAGGGTTAGGGTTAGGGTTAGGGTTAGGGTTAGGGTTAGGGTTAGGGTTAGGGTTAGGGTTAGGGCCCCTCTAGAGTCACGATCCCCGGGTAC
With B1, the binding result is “binds”.
